In assay [1] the target is SARS-CoV-2 wild type spike protein (on reporter virus particles) (SARS-CoV-2) (UniProt P0DTC2). Kind of assay: cell-based or functional assay.
Assay [2] has the same target. As to the kind of experiment: cell-based or functional assay. This is another data set of the same source.
Assay [3] concerns the target SARS-CoV-2 WT RBD (SARS-CoV-2) (UniProt P0DTC2). As to the kind of experiment: Octet BLI single point, monovalent. Background: BLI is a label-free optical method that tracks binding on a fibre tip over time.
Assay [4] has as its target Bat coronavirus WIV16 spike protein (Bat coronavirus WIV16). Kind of assay: cell-based or functional assay.
Assay [5] addresses SARS-CoV-1 spike protein (SARS-CoV-1) (UniProt P59594). Kind of assay: cell-based or functional assay.

Like-named read-outs stand apart in the source and are kept apart here.

In assay [1], RGN10987 (antibody) had a PsV neutralization IC50 of 0.007 µg/mL and a PsV neutralization IC90 of 0.078 µg/mL. In assay [2], this substance displayed a PSV IC50 of 0.031 µg/mL and a WT PsV IC50 of 0.292 nM. In addition, the equilibrium dissociation constant (Kd) in assay [3] amounted to 9.13 nM.
Turning to S309 (antibody), the values for the PsV neutralization IC50 in assay [4], in assay [5] and in assay [1] were 0.016 µg/mL, 0.01 µg/mL and 0.009 µg/mL, respectively. The PsV neutralization IC90 turned out to be 0.305 µg/mL in assay [4], 0.043 µg/mL in assay [5] and 0.051 µg/mL in assay [1]. In assay [2], this substance displayed a WT PsV IC50 of 6.56 nM.
In assay [1], RGN10933 (antibody) displayed a PsV neutralization IC50 of 0.002 µg/mL and a PsV neutralization IC90 of 0.024 µg/mL. In assay [2], this substance returned a PSV IC50 of 0.028 µg/mL, a PsV neutralization IC50 of 0.0067 µg/mL, a PsV neutralization IC90 of 0.081 µg/mL and an SARS2 IC50 of 0.022 nM. Besides, the WT PsV IC50 in assay [2] was found to be 0.185 nM. In assay [3], this substance showed a Kd of 3.62 nM.

One may read the Kd as the equilibrium constant for the complex coming apart. Higher therefore signals lower affinity.
